As a reminder, the Kd is a measure of binding affinity in units of concentration. For orientation: IC50 means the midpoint of a concentration-inhibition curve.

Where two headings read alike, the source gives them in different places. Where no end group is shown, it is not given here. [ ]: non-standard residue; d: D form. The star is where a group is joined. Octanoyl = CCCCCCCC(=O)*

The target of test [1] is T1, β-catenin (full-length recombinant) (human, UniProt P35222).
T1 chain: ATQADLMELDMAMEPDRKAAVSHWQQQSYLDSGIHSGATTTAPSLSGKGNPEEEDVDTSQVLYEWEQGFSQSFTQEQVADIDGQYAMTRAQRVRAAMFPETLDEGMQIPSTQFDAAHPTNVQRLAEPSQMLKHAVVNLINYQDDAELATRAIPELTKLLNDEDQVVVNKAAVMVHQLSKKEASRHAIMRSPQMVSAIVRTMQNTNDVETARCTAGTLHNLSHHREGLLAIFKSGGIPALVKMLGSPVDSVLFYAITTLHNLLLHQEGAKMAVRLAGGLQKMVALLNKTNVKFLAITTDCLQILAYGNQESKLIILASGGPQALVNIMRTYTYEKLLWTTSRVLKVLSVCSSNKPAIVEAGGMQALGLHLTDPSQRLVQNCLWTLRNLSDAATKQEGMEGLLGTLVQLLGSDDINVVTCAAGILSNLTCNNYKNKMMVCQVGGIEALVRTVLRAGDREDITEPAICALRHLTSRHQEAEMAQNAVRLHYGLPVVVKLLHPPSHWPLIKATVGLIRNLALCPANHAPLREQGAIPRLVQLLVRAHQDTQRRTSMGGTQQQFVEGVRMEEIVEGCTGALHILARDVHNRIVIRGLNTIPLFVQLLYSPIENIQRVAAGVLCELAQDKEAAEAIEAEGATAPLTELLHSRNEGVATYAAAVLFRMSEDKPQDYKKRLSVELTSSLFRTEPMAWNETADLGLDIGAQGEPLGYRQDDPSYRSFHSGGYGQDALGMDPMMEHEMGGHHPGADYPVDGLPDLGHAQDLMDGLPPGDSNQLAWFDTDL
Description: FP, room temperature.

Test [2] concerns the target T1, β-catenin (full-length recombinant). Description: competition, ALPHA assay vs BCL9 HD2 peptide, pH 6.5.
For test [3] the target is unchanged.

For the molecule Octanoyl-[dF][dR][dW][dL][dL][dR][dQ][dL][dA][dR][dL][dA][dQ][dL][dA][dK][dL][dT][dP][dV][dK][dL][dT][dP][dV] (also: FITC conjugate used in the FP assay) [ST316], the Kd in test [1] was roughly 126 nM. The IC50 in test [2] was roughly 1000 nM.

B1: BCL9 (protein)
chain: MHSSNPKVRSSPSGNTQSSPKSKQEVMVRPPTVMSPSGNPQLDSKFSNQGKQGGSASQSQPSPCDSKSGGHTPKALPGPGGSMGLKNGAGNGAKGKGKRERSISADSFDQRDPGTPNDDSDIKECNSADHIKSQDSQHTPHSMTPSNATAPRSSTPSHGQTTATEPTPAQKTPAKVVYVFSTEMANKAAEAVLKGQVETIVSFHIQNISNNKTERSTAPLNTQISALRNDPKPLPQQPPAPANQDQNSSQNTRLQPTPPIPAPAPKPAAPPRPLDRESPGVENKLIPSVGSPASSTPLPPDGTGPNSTPNNRAVTPVSQGSNSSSADPKAPPPPPVSSGEPPTLGENPDGLSQEQLEHRERSLQTLRDIQRMLFPDEKEFTGAQSGGPQQNPGVLDGPQKKPEGPIQAMMAQSQSLGKGPGPRTDVGAPFGPQGHRDVPFSPDEMVPPSMNSQSGTIGPDHLDHMTPEQIAWLKLQQEFYEEKRRKQEQVVVQQCSLQDMMVHQHGPRGVVRGPPPPYQMTPSEGWAPGGTEPFSDGINMPHSLPPRGMAPHPNMPGSQMRLPGFAGMINSEMEGPNVPNPASRPGLSGVSWPDDVPKIPDGRNFPPGQGIFSGPGRGERFPNPQGLSEEMFQQQLAEKQLGLPPGMAMEGIRPSMEMNRMIPGSQRHMEPGNNPIFPRIPVEGPLSPSRGDFPKGIPPQMGPGRELEFGMVPSGMKGDVNLNVNMGSNSQMIPQKMREAGAGPEEMLKLRPGGSDMLPAQQKMVPLPFGEHPQQEYGMGPRPFLPMSQGPGSNSGLRNLREPIGPDQRTNSRLSHMPPLPLNPSSNPTSLNTAPPVQRGLGRKPLDISVAGSQVHSPGINPLKSPTMHQVQSPMLGSPSGNLKSPQTPSQLAGMLAGPAAAASIKSPPVLGSAAASPVHLKSPSLPAPSPGWTSSPKPPLQSPGIPPNHKAPLTMASPAMLGNVESGGPPPPTASQPASVNIPGSLPSSTPYTMPPEPTLSQNPLSIMMSRMSKFAMPSSTPLYHDAIKTVASSDDDSPPARSPNLPSMNNMPGMGINTQNPRISGPNPVVPMPTLSPMGMTQPLSHSNQMPSPNAVGPNIPPHGVPMGPGLMSHNPIMGHGSQEPPMVPQGRMGFPQGFPPVQSPPQQVPFPHNGPSGGQGSFPGGMGFPGEGPLGRPSNLPQSSADAALCKPGGPGGPDSFTVLGNSMPSVFTDPDLQEVIRPGATGIPEFDLSRIIPSEKPSQTLQYFPRGEVPGRKQPQGPGPGFSHMQGMMGEQAPRMGLALPGMGGPGPVGTPDIPLGTAPSMPGHNPMRPPAFLQQGMMGPHHRMMSPAQSTMPGQPTLMSNPAAAVGMIPGKDRGPAGLYTHPGPVGSPGMMMSMQGMMGPQQNIMIPPQMRPRGMAADVGMGGFSQGPGNPGNMMF
For B1, in test [3], the Kd was roughly 200 nM.
